Like-named read-outs stand apart in the source and are kept apart here.
Key:
[1] = tested on: PC-3-xenograft Balb/c nu/nu mice; test: Ex vivo optical (fluorescence, IVIS) imaging of organs; format: in vivo, mouse; settings: ex vivo after dissection, ex/em 640/680 nm
Method: (§1) Seven-week-old male Balb/c nu/nu-specific and opportunistic pathogen-free (SOPF) mice (Janvier Labs, Le Genest-Saint-Isle, France) were housed in individually ventilated cages, with 4 mice per cage. Upon arrival, mice were acclimated for 1 week, with access to food and water ad libitum. Mice were subcutaneously inoculated on the right shoulder with PC-3 cells (5 × 10^6 cells suspended in 100 µL of 1/3 Matrigel (Corning Inc., Corning, NY, USA) and 2/3 Hank’s balanced salt solution (Gibco). PC-3 xenografts were allowed to grow for 3 weeks. Tumor sizes were 391 ± 173 mm^3 at the start of the studies. All animal experiments were approved by the Animal Welfare Committee of the Erasmus MC and were conducted in agreement with institutional guidelines (license number: AVD101002017867, 28 September 2017).
(§2) Before gamma counter measurements, the tumor half, pancreas, kidneys, lungs, small intestine, large intestine, liver, muscle, and bone were placed in two petri dishes and ex vivo optical imaging was performed with the IVIS Spectrum system (Perkin Elmer, Waltham, MA, USA) using the following settings for all measurements: FOV 12.6 cm, medium binning, f2, 0.5 s exposure with an excitation/emission filter of 640 nm/680 nm. Living Image version 4.5.2 software (Perkin Elmer) was used to perform data analysis by drawing a region of interest around the organ/tissue to quantify the radiant efficiency {(photons/second/cm^2/steradian)/(μW/cm^2)}.

[2] = as above; format: in vivo, mouse; settings: male, Balb/c nu/nu, mouse, iv, ex vivo radiant efficiency
Method: as §1, §2

[3] = Distribution coefficient (LogD7.4), shake-flask method; format: physicochemical; settings: n-octanol/PBS pH 7.4, n = 3; read-out: Log D7.4
Method: Distribution coefficients (LogD7.4) for the ^111In-labeled compounds were determined by a shake-flask method. The experiments were performed in triplicate for each radioligand. A sample containing the radioligand (0.5–2.0 MBq) was dissolved in 1 mL solution of phosphate-buffered saline (0.01 M, pH 7.4) and n-octanol (v:v = 1:1). The vials were vortexed vigorously and then centrifuged at 10,000 rpm for 3 min, for phase separation. Samples (10 μL) of each phase were taken out and analyzed using a gamma counter. LogD7.4 values were calculated, using the following equation: LogD7.4 = log {(counts in n-octanol phase)/(counts in PBS phase)}.

[4] = tested on: PC-3-xenograft Balb/c nu/nu mice; test: Ex vivo biodistribution after SPECT/CT scanning; format: in vivo, mouse; settings: radioactivity, ~3 h p.i.
Method: as §1
(§3) To determine the biodistribution of the compounds after imaging (~3 h p.i.), blood was collected via cardiac puncture under isoflurane/O2 anesthesia, after which the mice were sacrificed. The tumor and organs of interest (prostate, pancreas, spleen, liver, GI tract (stomach, small intestine, cecum, large intestine), kidneys, lungs, heart, muscle, bone, and brain) were excised, washed in PBS and blotted dry. The stomach, intestines and cecum were emptied of their contents. The tumor was cut in half; one half was fresh-frozen for further analysis and the other half was collected for ex vivo optical imaging and radioactivity measurements. After imaging, the blood, tumor, and relevant organs were weighed and measured in a γ-counter. To determine the total injected radioactivity per animal, samples of the injected solutions were measured as well. The percentage of injected dose per gram (%ID/g) was determined for each tissue sample and corrected for both the injected volume and %ID present at the injection site (the tail). Because the low weight of the prostate limited accurate organ weight measurements, the average prostate weight of all animals was used.

[5] = Ex vivo biodistribution after SPECT/CT scanning; format: in vivo, mouse; settings: mouse, iv, ~3 h p.i.; for tissue to tissue ratio: male, Balb/c nu/nu, total radioactivity, radioactivity; for tissue uptake at 3 h: PC-3 xenograft mice, i.v.
Method: as §1, §3

[6] = blocked with 150 nmol unlabeled NeoB, n = 1
[7] = non-blocked, n = 3, listed as [111In]In‐15

For `CC(C)CC(CC(C)C)NC(=O)[C@H](Cc1c[nH]cn1)NC(=O)CNC(=O)[C@@H](NC(=O)[C@H](C)NC(=O)[C@H](Cc1c[nH]c2ccccc12)NC(=O)[C@H](CCC(N)=O)NC(=O)[C@@H](Cc1ccccc1)NC(=O)CCOCCOCCOCCOCCNC(=O)[C@H](CCCCNC(=O)OC1CCCC2C=NN=C(c3ccc(CNC(=O)CCCCC[N+]4=C(/C=C/C=C/C=C5N(C)c6ccc(S(=O)(=O)O)cc6C5(C)C)C(C)(C)c5cc(S(=O)(=O)[O-])ccc54)cc3)C2CC1)NC(=O)CN1CCN(CC(=O)O)CCN(CC(=O)O)CCN(CC(=O)O)CC1)C(C)C` (some centres unmarked) [[^111In]In-15, metal not drawn], the “Fluorescent signal, bone (average radiant efficiency)” value [1, 6] was 0.55 × 10^8 p/sec/cm^2/sr per µW/cm, the “Fluorescent signal, kidneys (average radiant efficiency)” value (“Fluorescent signal, kidneys” for short) [1, 6] was 6.09 × 10^8 p/sec/cm^2/sr per µW/cm and the “Fluorescent signal, large intestine (average radiant efficiency)” value [1, 6] was 0.49 × 10^8 p/sec/cm^2/sr per µW/cm. The “Fluorescent signal, liver (average radiant efficiency)” value [1, 6] was 1.75 × 10^8 p/sec/cm^2/sr per µW/cm, the “Fluorescent signal, lungs (average radiant efficiency)” value [1, 6] was 2.93 × 10^8 p/sec/cm^2/sr per µW/cm and the “Fluorescent signal, muscle (average radiant efficiency)” value [1, 6] was 0.96 × 10^8 p/sec/cm^2/sr per µW/cm. The “Fluorescent signal, pancreas (average radiant efficiency)” value (from here on “Fluorescent signal, pancreas”) [1, 6] was 1.17 × 10^8 p/sec/cm^2/sr per µW/cm, the “Fluorescent signal, small intestine (average radiant efficiency)” value [1, 6] was 0.38 × 10^8 p/sec/cm^2/sr per µW/cm and the “Fluorescent signal, tumor (average radiant efficiency)” value (shortened to “Fluorescent signal, tumor”) [1, 6] was 1.47 × 10^8 p/sec/cm^2/sr per µW/cm. For the same compound, the “Fluorescent signal, bone (average radiant efficiency)” value ([1]; non-blocked, n = 3) was 0.74 ± 0.24 × 10^8 p/sec/cm^2/sr per µW/cm, the “Fluorescent signal, kidneys” value ([1]; non-blocked, n = 3) was 7.80 ± 0.92 × 10^8 p/sec/cm^2/sr per µW/cm^2 and the “Fluorescent signal, large intestine (average radiant efficiency)” value ([1]; non-blocked, n = 3) was 0.94 ± 0.28 × 10^8 p/sec/cm^2/sr per µW/cm. For the same compound, the “Fluorescent signal, liver (average radiant efficiency)” value ([1]; non-blocked, n = 3) was 2.38 ± 0.21 × 10^8 p/sec/cm^2/sr per µW/cm, the “Fluorescent signal, lungs (average radiant efficiency)” value ([1]; non-blocked, n = 3) was 2.25 ± 0.70 × 10^8 p/sec/cm^2/sr per µW/cm and the “Fluorescent signal, muscle (average radiant efficiency)” value ([1]; non-blocked, n = 3) was 1.08 ± 0.16 × 10^8 p/sec/cm^2/sr per µW/cm. For the same compound, the “Fluorescent signal, pancreas” value ([1]; non-blocked, n = 3) was 5.12 ± 1.93 × 10^8 p/sec/cm^2/sr per µW/cm^2, the “Fluorescent signal, small intestine (average radiant efficiency)” value ([1]; non-blocked, n = 3) was 0.85 ± 0.04 × 10^8 p/sec/cm^2/sr per µW/cm and the “Fluorescent signal, tumor” value ([1]; non-blocked, n = 3) was 4.66 ± 1.35 × 10^8 p/sec/cm^2/sr per µW/cm^2. For the same compound, the “Fluorescent signal, kidneys” value [1, 7] was 7.80 ± 0.92 × 10^8 p/sec/cm^2/sr per µW/cm, the “Fluorescent signal, pancreas” value [1, 7] was 5.12 ± 1.93 × 10^8 p/sec/cm^2/sr per µW/cm and the “Fluorescent signal, tumor” value [1, 7] was 4.66 ± 1.35 × 10^8 p/sec/cm^2/sr per µW/cm. The tissue to tissue ratio ([2]; tumor and kidney, blocked with 150 nmol unlabeled NeoB, n = 1, read-out: Tumor-to-kidney ratio (fluorescence)) was 0.24, the tissue to tissue ratio ([2]; tumor and kidney, non-blocked, n = 3, read-out: Tumor-to-kidney ratio (fluorescence)) was 0.59 ± 0.14 and the tissue to tissue ratio ([2]; tumor and liver, blocked with 150 nmol unlabeled NeoB, n = 1, read-out: Tumor-to-liver ratio (fluorescence)) was 0.84. The tissue to tissue ratio ([2]; tumor and liver, non-blocked, n = 3, read-out: Tumor-to-liver ratio (fluorescence)) was 1.96 ± 0.57, the tissue to tissue ratio ([2]; tumor and muscle, blocked with 150 nmol unlabeled NeoB, n = 1, read-out: Tumor-to-muscle ratio (fluorescence)) was 1.54 and the tissue to tissue ratio ([2]; tumor and muscle, non-blocked, n = 3, read-out: Tumor-to-muscle ratio (fluorescence)) was 4.5 ± 1.87. The tissue to tissue ratio ([2]; tumor and pancreas, blocked with 150 nmol unlabeled NeoB, n = 1, read-out: Tumor-to-pancreas ratio (fluorescence)) was 1.25, the tissue to tissue ratio ([2]; tumor and pancreas, non-blocked, n = 3, read-out: Tumor-to-pancreas ratio (fluorescence)) was 0.95 ± 0.18 and the logD [3] was -1.75 ± 0.09. For the same compound, the Tumor-to-blood ratio [4, 6] was 0.32, the Tumor-to-prostate ratio [4, 6] was 3.09 and the Tumor-to-prostate ratio ([4]; non-blocked, n = 3) was 2.16 ± 0.46. It also gave a tissue to tissue ratio ([5]; tumor and blood, non-blocked, n = 3, read-out: Tumor-to-blood ratio) of 0.38 ± 0.04, a tissue to tissue ratio ([5]; tumor and kidney, blocked with 150 nmol unlabeled NeoB, n = 1, read-out: Tumor-to-kidney ratio) of 0.24 and a tissue to tissue ratio ([5]; tumor and kidney, non-blocked, n = 3, read-out: Tumor-to-kidney ratio) of 0.45 ± 0.04. For the same compound, the tissue to tissue ratio ([5]; tumor and liver, blocked with 150 nmol unlabeled NeoB, n = 1, read-out: Tumor-to-liver ratio) was 0.49, the tissue to tissue ratio ([5]; tumor and liver, non-blocked, n = 3, read-out: Tumor-to-liver ratio) was 0.78 ± 0.04 and the tissue to tissue ratio ([5]; tumor and muscle, blocked with 150 nmol unlabeled NeoB, n = 1, read-out: Tumor-to-muscle ratio) was 3.42. It also gave a tissue to tissue ratio ([5]; tumor and muscle, non-blocked, n = 3, read-out: Tumor-to-muscle ratio) of 6.27 ± 0.44, a tissue to tissue ratio ([5]; tumor and pancreas, blocked with 150 nmol unlabeled NeoB, n = 1, read-out: Tumor-to-pancreas ratio) of 2.95 and a tissue to tissue ratio ([5]; tumor and pancreas, non-blocked, n = 3, read-out: Tumor-to-pancreas ratio) of 0.72 ± 0.08. For the same compound, the tissue uptake at 3 h ([5]; blood, blocked with 150 nmol unlabeled NeoB, n = 1, read-out: Blood uptake) was 13.9 %ID/g, the tissue uptake at 3 h ([5]; blood, non-blocked, n = 3, read-out: Blood uptake) was 18.3 ± 2.12 %ID/g and the tissue uptake at 3 h ([5]; bone, blocked with 150 nmol unlabeled NeoB, n = 1, read-out: Bone uptake) was 2.82 %ID/g. It also gave a tissue uptake at 3 h ([5]; bone, non-blocked, n = 3, read-out: Bone uptake) of 3.05 ± 0.74 %ID/g, a tissue uptake at 3 h ([5]; brain, blocked with 150 nmol unlabeled NeoB, n = 1, read-out: Brain uptake) of 0.51 %ID/g and a tissue uptake at 3 h ([5]; brain, non-blocked, n = 3, read-out: Brain uptake) of 0.67 ± 0.28 %ID/g. For the same compound, the tissue uptake at 3 h ([5]; cecum, blocked with 150 nmol unlabeled NeoB, n = 1, read-out: Cecum uptake) was 2.31 %ID/g, the tissue uptake at 3 h ([5]; cecum, non-blocked, n = 3, read-out: Cecum uptake) was 5.21 ± 1.94 %ID/g and the tissue uptake at 3 h ([5]; heart, blocked with 150 nmol unlabeled NeoB, n = 1, read-out: Heart uptake) was 3.27 %ID/g. For the same compound, the tissue uptake at 3 h ([5]; heart, non-blocked, n = 3, read-out: Heart uptake) was 5.43 ± 0.69 %ID/g, the tissue uptake at 3 h ([5]; kidneys, blocked with 150 nmol unlabeled NeoB, n = 1, read-out: Kidneys uptake) was 18.2 %ID/g and the tissue uptake at 3 h ([5]; kidneys, non-blocked, n = 3, read-out: Kidneys uptake) was 15.4 ± 0.5 %ID/g. The tissue uptake at 3 h ([5]; large intestine, blocked with 150 nmol unlabeled NeoB, n = 1, read-out: Large intestine uptake) was 2.35 %ID/g, the tissue uptake at 3 h ([5]; large intestine, non-blocked, n = 3, read-out: Large intestine uptake) was 5.6 ± 1.44 %ID/g and the tissue uptake at 3 h ([5]; liver, blocked with 150 nmol unlabeled NeoB, n = 1, read-out: Liver uptake) was 8.93 %ID/g. For the same compound, the tissue uptake at 3 h ([5]; liver, non-blocked, n = 3, read-out: Liver uptake) was 8.87 ± 0.65 %ID/g, the tissue uptake at 3 h ([5]; lungs, blocked with 150 nmol unlabeled NeoB, n = 1, read-out: Lungs uptake) was 18.9 %ID/g and the tissue uptake at 3 h ([5]; lungs, non-blocked, n = 3, read-out: Lungs uptake) was 6.77 ± 1.73 %ID/g. For the same compound, the tissue uptake at 3 h ([5]; muscle, blocked with 150 nmol unlabeled NeoB, n = 1, read-out: Muscle uptake) was 1.28 %ID/g, the tissue uptake at 3 h ([5]; muscle, non-blocked, n = 3, read-out: Muscle uptake) was 1.1 ± 0.09 %ID/g and the tissue uptake at 3 h ([5]; pancreas, blocked with 150 nmol unlabeled NeoB, n = 1, read-out: Pancreas uptake) was 1.49 %ID/g. It also gave a tissue uptake at 3 h ([5]; pancreas, non-blocked, n = 3, read-out: Pancreas uptake) of 9.72 ± 1.63 %ID/g, a tissue uptake at 3 h ([5]; prostate, blocked with 150 nmol unlabeled NeoB, n = 1, read-out: Prostate uptake) of 1.42 %ID/g and a tissue uptake at 3 h ([5]; prostate, non-blocked, n = 3, read-out: Prostate uptake) of 3.27 ± 0.74 %ID/g. For the same compound, the tissue uptake at 3 h ([5]; small intestine, blocked with 150 nmol unlabeled NeoB, n = 1, read-out: Small intestine uptake) was 1.97 %ID/g, the tissue uptake at 3 h ([5]; small intestine, non-blocked, n = 3, read-out: Small intestine uptake) was 3.79 ± 0.69 %ID/g and the tissue uptake at 3 h ([5]; spleen, blocked with 150 nmol unlabeled NeoB, n = 1, read-out: Spleen uptake) was 5.05 %ID/g. The tissue uptake at 3 h ([5]; spleen, non-blocked, n = 3, read-out: Spleen uptake) was 5.86 ± 1.7 %ID/g, the tissue uptake at 3 h ([5]; stomach, blocked with 150 nmol unlabeled NeoB, n = 1, read-out: Stomach uptake) was 3.48 %ID/g and the tissue uptake at 3 h ([5]; stomach, non-blocked, n = 3, read-out: Stomach uptake) was 4.4 ± 1.04 %ID/g. For the same compound, the tissue uptake at 3 h ([5]; tumor, blocked with 150 nmol unlabeled NeoB, n = 1, read-out: Tumor uptake) was 4.39 %ID/g and the tissue uptake at 3 h ([5]; tumor, non-blocked, n = 3, read-out: Tumor uptake) was 6.9 ± 0.81 %ID/g.
